Results on one molecule are retold here after patent publication US11141492B2, “Anticancer combinations” (City of Hope, priority 2013, dated 2021).

For assay [1], the system named is vessels within the tumor mass. The experiment in a line: Anti-CD31 staining of vessels within the tumor mass. The class given is in vivo, mice. Conditions: 14 day tumors, versus untreated (majority of closed vessels). The source says: Sections from 14 day tumors of mice untreated or treated with PEGPH20 were stained with anti-CD31 antibody to locate cross sections of vessels within the tumor mass. FITC-conjugated secondary specific to CD31 primary and DAPI staining were visualized by fluorescence microscopy.

Another assay has as its system KPC-luc tumors. Description: Orthotopic KPC-luc pancreatic tumor model, intravital imaging (IVIS). Conditions: PEGPH20 4.5 mg/kg (~90 ug/mouse) i.v. day 7; shIDO-ST 5×10^6 cfu/mouse i.v. day 8 (alone: days 8 and 12); n=3. The class given is in vivo, C57BL/6 mice. How it is done: To determine the effects of shIDO-ST and PEGPH20™, nine C57BL/6 mice were injected orthotopically (in the pancreas) with 5×10^5 KPC-luc cells. Three small groups (n=3) were created: shIDO-ST alone, PEGPH20™ alone, and shIDO-ST with PEGPH20™. The shIDO-ST alone group received shIDO-ST at a dose of 5×10^6 cfu/mouse through intravenous (i.v.) injection on days 8 and 12. PEGPH20™ alone group received PEGPH20™ at a dose of 4.5 mg/kg (˜90 ug/mouse) on day 7 through i.v. injection. The combination (PEGPH20™ with shIDO-ST) group received PEGPH20™ at 4.5 mg/kg on day 7 followed by treatment with shIDO-ST on day 8 at 5×10^6 cfu/mouse. Mice were imaged using an intravital imaging system (IVIS) at indicated time points after tumor cell implantation. […]
Titration of combination treatment with shIDO-ST and PEGPH20™ was performed to reduce the toxicity observed in initial experiment (FIG. 2). […] Photons emitted from mice imaged in FIG. 2 were quantitated using Living Image® software.
Due to the sensitivity of 7 day KPC-luc tumors to the combination PEGPH20™ and […] treatment (FIG. 2), treatment of implanted KPC-luc tumors was delayed to day 14. […] Doses (previously determined from titration studies described in FIG. 2) consisted of 45 ug of PEGPH20™ followed by 5×10^6 cfu/mouse of shIDO-ST or shScr-ST. […] Photons emitted from mice imaged in FIG. 4 were quantitated using Living Image® software. […]

Another assay deals with hyaluronan. Description: Hyaluronan staining of KPC-luc tumor sections. The class given is in vivo, mice. Conditions: forty-eight hours after treatment; 14 day orthotopic tumors.

B1: PEGPH20™: pegylated recombinant human hyaluronidase PH-20 (Halozyme, Inc.) (protein, listed as Homo Sapiens)
chain: MGVLKFKHIFFRSFVKSSGVSQIVFTFLLIPCCLTLNFRAPPVIPNVPFLWAWNAPSEFCLGKFDEPLDMSLFSFIGSPRINATGQGVTIFYVDRLGYYPYIDSITGVTVNGGIPQKISLQDHLDKAKKDITFYMPVDNLGMAVIDWEEWRPTWARNWKPKDVYKNRSIELVQQQNVQLSLTEATEKAKQEFEKAGKDFLVETIKLGKLLRPNHLWGYYLFPDCYNHHYKKPGYNGSCFNVEIKRNDDLSWLWNESTALYPSIYLNTQQSPVAATLYVRNRVREAIRVSKIPDAKSPLPVFAYTRIVFTDQVLKFLSQDELVYTFGETVALGASGIVIWGTLSIMRSMKSCLLLDNYMETILNPYIINVTLAAKMCSQVLCQEQGVCIRKNWNSSDYLHLNPDNFAIQLEKGGKFTVRGKPTLEDLEQFSEKFYCSCYSTLSCKEKADVKDTDAVDVCIADGVCIDAFLKPPMETEEPQIFYNASPSTLSATMFIVSILFLIISSVASL
modifications: PEGylated
B1: in assay [1], the “open vessels in tumors (CD31 staining)” value is listed as “Many more open vessels”. The “tumor growth by IVIS imaging” value with KPC-luc tumors is given as “euthanized due to significantly large tumors”. The “hyaluronan in KPC-luc tumor tissue sections” value in the assay with hyaluronan was “significant depletion of hyaluronan”.
